From PMC3706390

Assays:
[1] = biological target: T1, L30 (ribosomal protein L30) wild-type (rat, UniProt P62890 1-115); experiment: EMSA; 5 mM Mg2+; 30 mM Tris-HCl pH 8.0, 75 mM KCl, 5 mM MgCl2, 1 mM DTT, 0.04 ug/uL BSA, 10% glycerol, 50 ng/uL yeast tRNA, 30 C 15 min; EMSA gels 0.5X TBE at 4 C; RNase digesti
[2] = biological target: T1, L30 (ribosomal protein L30) wild-type; experiment: UV cross-linking; 30 mM Tris-HCl pH 8.0, 75 mM KCl, 5 mM MgCl2, 1 mM DTT, 0.04 ug/uL BSA, 10% glycerol, 50 ng/uL yeast tRNA, 30 C 15 min; EMSA gels 0.5X TBE at 4 C; RNase digesti

Work on GGGACCGGAGUGUCGCAAGACGCAGAGAUGGUCC (structured_RNA) [L30 RNA (stem-loop of L30 pre-mRNA)] yielded a Kd [1] of 170 nM.

B1: PHGPx SECIS wild-type (UV cross-linking) (structured_RNA)
RNA: CUGCCCUGUGACCCCUGGAGCCUUCCACCCCGGCACUCAUGACGGUCUGCCUGAAAACCAGCCCGCUGGUGGGGCAGUCCCGAGGACCUGGCGUGCAUCCCCGCCGGAGGAAGGUCCAGACGCUGUGGCC
B1: binds [2].

B2: PHGPx SECIS U40C (structured_RNA)
RNA: CUGCCCUGUGACCCCUGGAGCCUUCCACCCCGGCACUCACGACGGUCUGCCUGAAAACCAGCCCGCUGGUGGGGCAGUCCCGAGGACCUGGCGUGCAUCCCCGCCGGAGGAAGGUCCAGACGCUGUGGCC
B2: no binding [2].
